Results: article PMC1807944
Where “and” joins values, the source holds several entries; their conditions need not be identical. Equal entries are not always repeated.

Tests used:
[1] = molecular target: HIV-1 integrase (IN), monomer E (HIV-1) (UniProt P04585); test: SAXS titration
HIV-1 integrase (HIV-1) = test: SAXS

Substance	Kd [1] [nM]	stoichiometry N (HIV-1 integrase (HIV-1))
AAAAAAAAAAAAAAAAAAAAA (double strand) [ds A21-T21]	40	–
HIV-1 integrase (enzyme)	–	2 and 4
